Laboratory results taken from US20250382344A1, “Soluble GLP1/GIP/NPY2 Receptor Triple Agonists” (Boehringer Ingelheim International GmH, priority 2024, published 2025).
*1 amine or outer side, *2 acyl side, *3 side chain or, on linkers, in order; H or OH if unused. Where no end group is shown, it is not given here. Side-chain parts run from the residue outwards. [ ]: non-standard residue; d: D form. The star is where a group is joined. C20 diacid = O=C(O)CCCCCCCCCCCCCCCCCCC(=O)*; C18 diacid = O=C(O)CCCCCCCCCCCCCCCCC(=O)*; γGlu = O=C(O)[C@H](CCC(=O)[*:2])N[*:1]; εLys = N[C@@H](CCCCN[*:1])C(=O)[*:2]; AEEA = NCCOCCOCC(=O)O; Aib = CC(C)(N)C(=O)O

T1: human neuropeptide Y2 receptor (human, UniProt P49146 1-381)
T1 sequence (looked up): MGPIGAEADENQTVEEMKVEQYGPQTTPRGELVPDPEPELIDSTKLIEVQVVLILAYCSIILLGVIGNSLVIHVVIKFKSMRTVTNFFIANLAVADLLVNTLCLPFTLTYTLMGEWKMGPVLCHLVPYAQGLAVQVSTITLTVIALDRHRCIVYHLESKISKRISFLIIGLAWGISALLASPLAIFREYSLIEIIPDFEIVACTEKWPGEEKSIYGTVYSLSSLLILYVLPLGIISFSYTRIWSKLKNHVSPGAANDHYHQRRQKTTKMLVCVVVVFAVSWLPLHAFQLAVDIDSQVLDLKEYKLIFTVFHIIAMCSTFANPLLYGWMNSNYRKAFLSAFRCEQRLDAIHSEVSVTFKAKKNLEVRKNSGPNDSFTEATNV

T2: human GIP receptor (human, UniProt P48546 22-466)
T2 sequence (looked up): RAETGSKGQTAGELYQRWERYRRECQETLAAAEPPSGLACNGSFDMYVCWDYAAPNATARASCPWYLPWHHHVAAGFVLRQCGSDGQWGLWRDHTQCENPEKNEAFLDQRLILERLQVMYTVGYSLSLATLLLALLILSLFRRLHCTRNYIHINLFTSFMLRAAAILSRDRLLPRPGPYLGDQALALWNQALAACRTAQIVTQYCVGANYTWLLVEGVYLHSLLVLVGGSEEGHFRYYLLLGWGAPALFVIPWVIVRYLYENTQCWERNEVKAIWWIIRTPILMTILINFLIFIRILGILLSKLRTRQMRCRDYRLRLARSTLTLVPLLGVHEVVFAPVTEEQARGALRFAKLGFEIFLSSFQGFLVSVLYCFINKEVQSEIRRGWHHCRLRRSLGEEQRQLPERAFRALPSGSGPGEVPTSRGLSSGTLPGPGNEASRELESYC

T3: human GIP receptor (human, UniProt P48546 22-466)
T3 sequence (looked up): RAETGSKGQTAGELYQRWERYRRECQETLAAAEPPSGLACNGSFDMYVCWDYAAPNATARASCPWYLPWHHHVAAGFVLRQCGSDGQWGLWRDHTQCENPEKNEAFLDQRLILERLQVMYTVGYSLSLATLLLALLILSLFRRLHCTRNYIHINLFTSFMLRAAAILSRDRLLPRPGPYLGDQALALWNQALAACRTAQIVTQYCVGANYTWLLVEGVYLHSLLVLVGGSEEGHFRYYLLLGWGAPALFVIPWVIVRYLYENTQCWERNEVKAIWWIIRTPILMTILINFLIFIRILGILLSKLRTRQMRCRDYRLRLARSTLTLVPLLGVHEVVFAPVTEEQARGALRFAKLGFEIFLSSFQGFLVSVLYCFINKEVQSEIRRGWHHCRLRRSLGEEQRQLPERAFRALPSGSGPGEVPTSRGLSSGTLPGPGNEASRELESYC

T4: human neuropeptide Y2 receptor (human, UniProt P49146 1-381)
T4 sequence (looked up): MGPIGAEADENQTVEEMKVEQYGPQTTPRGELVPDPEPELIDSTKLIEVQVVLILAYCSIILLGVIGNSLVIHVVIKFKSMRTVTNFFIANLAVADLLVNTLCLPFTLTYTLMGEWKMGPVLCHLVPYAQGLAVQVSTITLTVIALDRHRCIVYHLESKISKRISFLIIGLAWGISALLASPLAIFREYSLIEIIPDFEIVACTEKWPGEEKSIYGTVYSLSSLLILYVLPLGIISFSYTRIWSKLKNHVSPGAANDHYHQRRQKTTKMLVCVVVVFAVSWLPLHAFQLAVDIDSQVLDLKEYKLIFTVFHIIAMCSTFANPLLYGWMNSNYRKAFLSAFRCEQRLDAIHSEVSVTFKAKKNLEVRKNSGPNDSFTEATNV


What was measured:
Assay in all cases: cell-based or functional assay
[1] = molecular target: T1, human neuropeptide Y2 receptor
[2] = molecular target: T2, human GIP receptor
[3] = molecular target: T3, human GIP receptor; remark: listed apart in the source
[4] = molecular target: T4, human neuropeptide Y2 receptor; remark: listed apart in the source

| EC50, CreLuc reporter, 0.5% hP [1] [nM] | EC50, CreLuc reporter, 100% hP [1] [nM] | EC50, CreLuc reporter, 0.5% hP [2] [nM] | EC50, CreLuc reporter, 0.5% hP [3] [nM] | EC50, CreLuc reporter, 100% hP [3] [nM] | EC50, CreLuc reporter, 100% hP [2] [nM] | Binder | further results |
| --- | --- | --- | --- | --- | --- | --- | --- |
| 162 | 720 | 0.5 |  |  |  | Y[Aib]EGTFTSDYSI[Aib]LEEEAQ[Aib]EFVRHLINK([γGlu-γGlu-γGlu-γGlu-C18 diacid])[Aib]TRQRY-NH2 [Compound 64] |  |
|  | 75.1 |  |  |  | 11.7 | Y[Aib]EGTFTSDYSI[Aib]LEKQAE[Aib]AFVRHLINK([εLys-εLys-γGlu-γGlu-γGlu-γGlu-γGlu-γGlu-C20 diacid])[Aib]TRQRY-NH2 [Compound 82] |  |
|  |  |  | 0.5 | 9 |  | Y[Aib]EGTFTSDYSI[Aib]LEKQAQ[Aib]AFVRHLINK([AEEA-γGlu-γGlu-γGlu-γGlu-γGlu-γGlu-C20 diacid])[Aib]TRQRY-NH2 [Compound 99] | EC50, CreLuc reporter, 0.5% hP [4]: 16.7 nM; EC50, CreLuc reporter, 100% hP [4]: 125 nM |
|  |  |  |  | 4.7 |  | YXEGTFTSDYSIXLEKQAQXAFVRHLINKXTRQRY (Aib at 2, 13, 20, 30; Lys29 epsilon-amino: C20DA-gGlu-gGlu-gGlu-gGlu-gGlu-AHX-AHX; C-terminal amide) [Compound 106] | EC50, CreLuc reporter, 0.5% hP [4]: 7.1 nM; EC50, CreLuc reporter, 100% hP [4]: 41.7 nM |
|  |  |  | 0.1 | 4.5 |  | YXEGTFTSDYSILLEKQAQXAFVRHLINKXTRQRY (Aib at 2, 20, 30; Lys29 epsilon-amino: C18DA-gGlu-gGlu-gGlu-gGlu-gGlu; C-terminal amide) [Compound 122] | EC50, CreLuc reporter, 0.5% hP [4]: 60.8 nM; EC50, CreLuc reporter, 100% hP [4]: 284 nM |
|  |  |  | 0.3 |  |  | YXEGTFTSDYSIXLEKAAQXAFVRHLINKXTRQRY (Aib at 2, 13, 20, 30; Lys29 epsilon-amino: C18DA-gGlu-gGlu-gGlu-gGlu-gGlu-gGlu-eLys; C-terminal amide) [Compound 143] |  |
| 65.8 | 406 | 0.7 |  |  | 16.8 | YXEGTFTSDYSIXLELQAQXAFVRHLINKXTRQRY (Aib at 2, 13, 20, 30; Lys29 epsilon-amino acylated with C18DA-gGlu-gGlu-gGlu-gGlu-gGlu-gGlu-eLys; C-terminal amide) [Compound 65] |  |
| 191 | 904 | 0.3 |  |  | 13.2 | YXEGTFTSDYSIXLEEQAQXAFVRHLINKXTRQRY (Aib at 2, 13, 20, 30; Lys29 epsilon-amino acylated with C18DA-gGlu-gGlu-gGlu-gGlu-gGlu; C-terminal amide) [Compound 75] |  |
| 9.8 | 99.3 | 0.2 |  |  |  | YXEGTFTSDYSIXLEKQAQXAFVRHLINKITRQRY (Aib at 2, 13, 20; Lys29 epsilon-amino acylated with C18DA-gGlu-gGlu-gGlu-gGlu-gGlu-gGlu-eLys; C-terminal amide) [Compound 66] |  |

Second part, the binder before the results:

| Binder | EC50, CreLuc reporter, 0.5% hP [1] [nM] | EC50, CreLuc reporter, 100% hP [1] [nM] | EC50, CreLuc reporter, 0.5% hP [2] [nM] | EC50, CreLuc reporter, 0.5% hP [3] [nM] | EC50, CreLuc reporter, 100% hP [3] [nM] | EC50, CreLuc reporter, 100% hP [2] [nM] | further results |
| --- | --- | --- | --- | --- | --- | --- | --- |
| Y[Aib]EGTFTSDYSI[Aib]LDEQAQ[Aib]AFVRHLINK([εLys-γGlu-γGlu-γGlu-γGlu-γGlu-C20 diacid])[Aib]TRQRY-NH2 [Compound 138] |  |  |  | 0.5 | 11.5 |  |  |
| Y[Aib]EGTFTSDYSI[Aib]LEKQAQ[Aib]EFVRHLINK([AEEA-AEEA-γGlu-γGlu-γGlu-γGlu-C18 diacid])[Aib]TRQRY-NH2 [Compound 73] |  | 136 | 0.4 |  |  | 5.9 |  |
| Y[Aib]EGTFTSDYSI[Aib]LEKQAQ[Aib]EFVRHLINK([γGlu-γGlu-γGlu-γGlu-C18 diacid])[Aib]TRQRY-NH2 [Compound 79] | 57.9 | 99.1 |  |  |  | 4.7 |  |
| YXEGTFTSDLSIXLEKQAQXAFVRHLINKXTRQRY (Aib at 2, 13, 20, 30; Lys29 epsilon-amino: C18DA-gGlu-gGlu-gGlu-gGlu-gGlu-gGlu-eLys; C-terminal amide) [Compound 169] |  |  |  | 0.4 |  |  |  |
| YXEGTFTSDYSIXLEKQAQXAFVRHLINKVTRQRY (Aib at 2, 13, 20; Lys29 epsilon-amino: C18DA-gGlu-gGlu-gGlu-gGlu-gGlu-gGlu-eLys; C-terminal amide) [Compound 126] |  |  |  | 0.4 |  |  |  |
| YXEGTFTSDYSIXLEGQAQXAFVRHLINKXTRQRY (Aib at 2, 13, 20, 30; Lys29 epsilon-amino: C18DA-gGlu-gGlu-gGlu-gGlu-gGlu-gGlu-eLys; C-terminal amide) [Compound 95] |  |  |  |  | 9.3 |  | EC50, CreLuc reporter, 0.5% hP [4]: 58 nM; EC50, CreLuc reporter, 100% hP [4]: 96.3 nM |
| YXEGTFTSDYSIXLEKQAQXSFVRHLINKXTRQRY (Aib at 2, 13, 20, 30; Lys29 epsilon-amino: C18DA-gGlu-gGlu-gGlu-gGlu-gGlu-gGlu-eLys; C-terminal amide) [Compound 144] |  |  |  | 0.4 | 4.8 |  |  |
